Laboratory results published in patent publication US20170296617A1 (UNIVERSITY OF HOUSTON SYSTEM, published 2017).
No end group written: not given here. TAT = TAT cell-penetrating sequence fused at N-terminus

Experiments:
ROCK1 [1] = molecular target: T1, ROCK1 (UniProt Q13464 1-553, limits assumed); experiment: SPR (BiaCore, proteins immobilized on CM-5 chip)
T1 construct: also called Rho-associated kinase 1; p160ROCK

ROCK2 = molecular target: T2, ROCK2 (UniProt O75116 5-554, limits assumed); experiment: SPR (BiaCore), protein immobilized on CM-5 chip, peptide as analyte; no ROCK-II sensorgram is drawn
T2 construct: also called ROKa

ROCK1 [2] = molecular target: T1, ROCK1; experiment: SPR (BiaCore), protein immobilized on CM-5 chip, peptide as analyte; the sheet does not say whether ROCK-I is ROCK1-553 or ROCK1-415

T1 sequence (Q13464 1-553 limits assumed): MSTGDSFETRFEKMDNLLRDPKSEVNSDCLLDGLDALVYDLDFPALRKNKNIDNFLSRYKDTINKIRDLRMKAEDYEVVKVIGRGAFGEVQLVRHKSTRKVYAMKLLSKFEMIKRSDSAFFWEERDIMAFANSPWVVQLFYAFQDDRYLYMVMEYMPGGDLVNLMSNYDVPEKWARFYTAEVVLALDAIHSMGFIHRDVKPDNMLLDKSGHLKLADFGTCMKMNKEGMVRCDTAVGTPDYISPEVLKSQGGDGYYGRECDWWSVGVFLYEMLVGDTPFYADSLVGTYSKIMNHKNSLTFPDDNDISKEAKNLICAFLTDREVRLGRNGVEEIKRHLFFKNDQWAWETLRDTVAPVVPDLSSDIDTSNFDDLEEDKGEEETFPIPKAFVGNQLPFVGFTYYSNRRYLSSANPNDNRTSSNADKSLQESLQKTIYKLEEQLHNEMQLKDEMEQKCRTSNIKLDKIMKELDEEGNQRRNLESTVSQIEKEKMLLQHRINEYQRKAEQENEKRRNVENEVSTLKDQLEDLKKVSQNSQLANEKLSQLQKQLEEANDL
T2 sequence (O75116 5-554 limits assumed): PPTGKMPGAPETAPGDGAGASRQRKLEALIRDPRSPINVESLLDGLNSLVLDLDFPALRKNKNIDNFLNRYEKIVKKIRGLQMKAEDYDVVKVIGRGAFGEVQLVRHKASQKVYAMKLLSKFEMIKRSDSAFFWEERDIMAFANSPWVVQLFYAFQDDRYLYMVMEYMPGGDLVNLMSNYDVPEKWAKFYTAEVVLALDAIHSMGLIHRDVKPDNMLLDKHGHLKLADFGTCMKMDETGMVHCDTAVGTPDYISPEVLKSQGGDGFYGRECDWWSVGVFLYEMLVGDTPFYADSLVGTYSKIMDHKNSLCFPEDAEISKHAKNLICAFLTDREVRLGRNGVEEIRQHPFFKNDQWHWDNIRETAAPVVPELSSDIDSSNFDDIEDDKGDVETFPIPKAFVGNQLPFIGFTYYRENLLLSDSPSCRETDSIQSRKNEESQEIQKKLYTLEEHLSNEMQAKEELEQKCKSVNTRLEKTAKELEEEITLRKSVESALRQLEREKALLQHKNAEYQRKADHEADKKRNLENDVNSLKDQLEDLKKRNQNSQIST

| Binder | Kd (ROCK1 [1]) [nM] | Kd (ROCK2) [nM] | Kd (ROCK1 [2]) [nM] |
| --- | --- | --- | --- |
| ERTYSPSTAVRS (also called PD2w-5; Pep25-4) [peptide25 (ERTYSPSTAVRS)] | 1500 | – | – |
| {TAT}-ERTYSPSTAVRS (Synthetic peptide added to the cell culture medium) [TATpeptide25 (peptide25 with the TAT sequence fused at its N-terminal end)] | – | 5150 | 1450 |
